These results are taken from PMC9728202, “Molecular and Enzymatic Features of Homoserine Dehydrogenase from Bacillus subtilis” (Journal of Microbiology and Biotechnology, 2020).

Substrate in series [1]: N[C@@H](CCO)C(=O)O
The experiment in a line: purified protein. It is filed as biochemical, Bacillus subtilis. The settings on record: oxidation, 2 mM NADP+, pH 9.0, 400 mM NaCl, 25°C, apparent.

Substrate in series [2]: NC(=O)c1ccc[n+]([C@@H]2O[C@H](COP(=O)(O)OP(=O)(O)OC[C@H]3O[C@@H](n4cnc5c(N)ncnc54)[C@H](OP(=O)(O)O)[C@@H]3O)[C@@H](O)[C@H]2O)c1
Put plainly: purified protein. The settings on record: oxidation, 100 mM L-homoserine, pH 9.0, 400 mM NaCl, 25°C, apparent, varied: cofactor. It is filed as biochemical, Bacillus subtilis.

Series [3] deals with the molecule itself. Put plainly: SEC; Superdex-200 10/300 GL, 20 mM Tris-HCl pH 8.0, 0.1 mM TCEP, 400 mM NaCl, 0.5 mL/min; mass from a standard curve of standard proteins. Background: SEC sorts molecules by how far they enter the pores of the column.

B1: Homoserine dehydrogenase from Bacillus subtilis (enzyme, Bacillus subtilis strain 168, UniProt P19582 1-433, looked up)
chain: MKAIRVGLLGLGTVGSGVVKIIQDHQDKLMHQVGCPVTIKKVLVKDLEKKREVDLPKEVLTTEVYDVIDDPDVDVVIEVIGGVEQTKQYLVDALRSKKHVVTANKDLMAVYGSELLAEAKENGCDIYFEASVAGGIPILRTLEEGLSSDRITKMMGIVNGTTNFILTKMIKEKSPYEEVLKEAQDLGFAEADPTSDVEGLDAARKMAILARLGFSMNVDLEDVKVKGISQITDEDISFSKRLGYTMKLIGIAQRDGSKIEVSVQPTLLPDHHPLSAVHNEFNAVYVYGEAVGETMFYGPGAGSMPTATSVVSDLVAVMKNMRLGVTGNSFVGPQYEKNMKSPSDIYAQQFLRIHVKDEVGSFSKITSVFSERGVSFEKILQLPIKGHDELAEIVIVTHHTSEADFSDILQNLNDLEVVQEVKSTYRVEGNGWS
notes: Homoserine dehydrogenase (gene hom) of Bacillus subtilis strain 168, 433 amino acid residues; Calculated mass of the monomer printed as 48.3 kDa; Surmised: cloning through XhoI into pET26b adds Leu-Glu before the His6 tag; no removal of the tag is told; also called BsHSD; HSD; source: E. coli Rosetta2 (DE3), purified (HisTrapFF, HiPrep 26/10 Desalting, Superdex-200)
The Km is the concentration of substrate that gives half-maximal velocity. Usually Vmax stands for the top rate of the reaction or transport when substrate is in excess. A word on the kcat: it is the maximal rate divided by the concentration of active sites. Usually kcat/Km stands for the turnover number divided by the Michaelis constant. Usually stoichiometry N stands for the number of molecules, sites or subunits per partner or assembly. B1: in the series “purified protein [1]”, the Michaelis-Menten constant (Km) is 35.08 ± 2.91 mM, the Vmax was 2.72 µmol/min/mg, the kcat came to 1.07 ± 0.02 s⁻¹ and the kcat/Km is 30 ± 10 M⁻¹ s⁻¹. Further, in the series “purified protein [2]”, the Km stood at 0.39 ± 0.05 mM, the Vmax amounted to 2.79 µmol/min/mg, the catalytic constant (kcat) is 1.1 ± 0.04 s⁻¹ and the kcat/Km came out at 2860 ± 910 M⁻¹ s⁻¹. The “stoichiometry N” value in series [3] came to 4.
